{
  "source": "patent US20080299638A1",
  "about": "(priority 2004, published 2008)",
  "test_system": "HBsAg",
  "assay": "Suppression of HBsAg secretion in 2.2.15 cells (radioimmunoassay, cpm)",
  "assay_type": "cell-based, hepatitis B virus",
  "settings": "for HBsAg IC50: first batch",
  "experimental": "Grow 200000 cells/ml 2.2.15 cell on 24-well plate, 1 ml per well, incubate for 24 hours under 5% CO2 at 37° C. […] 4 wells per concentration, incubate under 5% CO2 at 37° C., change drug solution every 4 days with the same concentration, retrieve culture medium at day 8, preserve at −20° C. Repeat experiment for 2 batches, test for HBsAg and HBeAg separately. Check cpm value for each wells using γ-counter.\nCalculating drug effectiveness: calculate the mean and standard deviation of cpm from the cell control group and groups with different drug concentration, P/N value and percent suppression, IC50 and SI. • (1)\n[formula] • (2) Calculate IC50 for drug suppression of antigen:\n[formula] • (4) Calculate the cpm differences between HBsAg and HBeAg in different dilutions and control groups by t-test.",
  "note": "“And” between values parts separate entries of the source, which are not always exact repeats. Identical values can stand only once.",
  "data": [
    {"molecule": "Arginase: Pegylated recombinant human arginase (BCT-100); human arginase I with N-terminal six-histidine tag, SEQ ID NO: 3 (protein, listed as Homo sapiens, PEGylated) MHHHHHHMSAKSRTIGIIGAPFSKGQPRGGVEEGPTVLRKAGLLEKLKEQECDVKDYGDLPFADIPNDSPFQIVKNPRSVGKASEQLAGKVAQVKKNGRISLVLGGDHSLAIGSISGHARVHPDLGVIWVDAHTDINTPLTTTSGNLHGQPVSFLLKELKGKIPDVPGFSWVTPCISAKDIVYIGLRDVDPGEHYILKTLGIKYFSMTEVDRLGIGKVMEETLSYLLGRKKRPIHLSFDVDGLDPSFTPATGTPVVGGLTYREGLYITEEIYKTGLLSGLDIMEVNPSLGKTPEEVTRTVNTAVAITLACFGLAREGNHKPIDYLNPPK", "values": [
      {"measurement": "Suppression of HBsAg secretion (result in words)", "setting": "2.2.15 cells, 8 days incubation, TC0 concentration and dilutions", "value": "significantly inhibits"},
      {"measurement": "HBsAg (CPM) % suppression", "setting": "Arginase 1.25 IU/ml, batch 2, day 8", "value": 4.463, "unit": "%"},
      {"measurement": "HBsAg (CPM) % suppression", "setting": "Arginase 1.25 IU/ml, two batches average line, day 8", "value": 4.46, "unit": "%"},
      {"measurement": "HBsAg (CPM) % suppression", "setting": "Arginase 2.5 IU/ml, batch 1, day 8", "value": "37.18% and 37.1787%"},
      {"measurement": "HBsAg (CPM) % suppression", "setting": "Arginase 2.5 IU/ml, batch 2, day 8", "value": 2.6073, "unit": "%"},
      {"measurement": "HBsAg (CPM) % suppression", "setting": "Arginase 2.5 IU/ml, two batches average, day 8", "value": "19.92 ± 24.40", "unit": "%"},
      {"measurement": "HBsAg (CPM) % suppression", "setting": "Arginase 5 IU/ml, batch 1, day 8", "value": "42.29% and 42.2871%"},
      {"measurement": "HBsAg (CPM) % suppression", "setting": "Arginase 5 IU/ml, batch 2, day 8", "value": 1.4739, "unit": "%"},
      {"measurement": "HBsAg (CPM) % suppression", "setting": "Arginase 5 IU/ml, two batches average, day 8", "value": "21.88 ± 28.86", "unit": "%"},
      {"measurement": "HBsAg (CPM) % suppression", "setting": "Arginase 10 IU/ml, batch 1, day 8", "value": "47.97% and 47.9651%"},
      {"measurement": "HBsAg (CPM) % suppression", "setting": "Arginase 10 IU/ml, batch 2, day 8", "value": 6.0761, "unit": "%"},
      {"measurement": "HBsAg (CPM) % suppression", "setting": "Arginase 10 IU/ml, two batches average, day 8", "value": "27.02 ± 29.62", "unit": "%"},
      {"measurement": "HBsAg (CPM) % suppression", "setting": "Arginase 20 IU/ml, batch 1, day 8", "value": "49.16% and 49.1558%"},
      {"measurement": "HBsAg (CPM) % suppression", "setting": "Arginase 20 IU/ml, two batches average, day 8", "value": "29.81±27.35", "unit": "%"},
      {"measurement": "HBsAg (CPM) % suppression", "setting": "Arginase 20 IU/ml, two batches average, day 8, listed as pegylated recombinant arginase", "value": "29.81±27.35", "unit": "%"},
      {"measurement": "HBsAg IC50", "setting": "day 8", "value": "(1)10.72 IU/ml"},
      {"measurement": "HBsAg IC50", "setting": "day 8, listed as pegylated recombinant arginase", "value": 10.72, "unit": "IU/ml"}
    ]}
  ]
}
